Experimental data taken from the nanobody polyreactivity screen of Harvey et al. (2022).

assay: yeast display, Sf9 membrane polyspecificity reagent, FACS + sequencing; frameworks hold sequencing errors
Outline: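 Galactose induction of a Saccharomyces cerevisiae BJ5465 synthetic nanobody display library ran 36–48 hours. The cells were then stained for 1 hour at 4 °C with 10% biotinylated, detergent-solubilized Sf9 membrane reagent, pulled down on streptavidin microbeads and FACS-sorted into low and high (top ~1%) gates on expression and reagent-binding fluorescence. Labels for polyreactivity follow the gate of origin.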

| Sequence | polyreactivity (PSR sort gate) |
| --- | --- |
| QVQLVESGGGLVQAGGSLRLSCAASGRTFTTNAMGWYRQAPGKERELVAGISYSTGRTYYADSVKGRFTISRDNAKNTVYLQMNSLKPEDTAVYYCAAYTRGYRGYYYWGQGTQVTVSS | high polyreactivity |
| QVQLVESGGGLVQAGGSLRLSCAASGRTFTTYAMGWYRQAPGKERELVASISGSGGSTYFADSVKGRFTISRDNAKNTVYLQMNSLKPEDTAVYYCATADYYHGGYYYPYDDYWGQGTQVTVSS | low polyreactivity |
| QVQLVESGGGLVQAGGSLRLSCAASGRTFTTYAMGWYRQAPRKERELVASISRRGGSTYYADSVKGRFTISRDNAKNTVYLQMNSLKPEDTAVYYCNAGGVRKYGYWGQGTQVTVSS | high polyreactivity |
| QVQLVESGGGLVQAGGSLRLSCAASGRTFTVNAMGWYRPAPGKERELVAAISGRSGRTSYADSVKGRFTISRDNAKNNVYLQMNSLKPEDTAVYSCNASGGYSTGSRFEYWGQGTQVTVSS | high polyreactivity |
| QVQLVESGGGLVQAGGSLRLSCAASGRTFTWNAMGWYRQAPGKERELVADITNNGGSTYYADSVKGRFTISRDNATNTVYLQMNSLKPEDTAVYYCDNRRNYWFSFDYWGQGTQVTVSS | low polyreactivity |
| QVQLVESGGGLVQAGGSLRLSCAASGRTFTWYTMGCYIQAPGKERELVAAISGSGSRTYYADSVKGRFTISRDNAKNTVYLQMNSLKPEDTAVYYCAKDKSARYRYDYWGQGTQVTVSS | low polyreactivity |
| QVQLVESGGGLVQAGGSLRLSCAASGRTFTYNAMGWYRQAPGKERELVASITWSGGRTYYADSVKGRFTISRDNAKNTVYLQMNSLKPEDTAVYYCAAYRWWGYITGVRGAKSIFDYWGQGTQVTVSS | high polyreactivity |
| QVQLVESGGGLVQAGGSLRLSCAASGRTFTYNTMGWYRQAPGKERELVAAISSRGGRTYYADSVKGRFTISRDNAKNTVYLQLNSLKPEDTAVYACAVYGYYALTHWEYDYWGQGTQVTVSS | high polyreactivity |
| QVQLVESGGGLVQAGGSLRLSCAASGRTFTYYAMGWYRQAPGKERELVADINRSGGDTYYADSVKGRFTISRDNAKNTVYLQMNSLKPEDTAVYYCAADDWGAQHRYDYWGQGTQVTVSS | low polyreactivity |
| QVQLVESGGGLVQAGGSLRLSCAASGRTFTYYAMGWYRQAPGKERELVARISSSGSTNYADSVKGRFTISRDNAKNTVYLQMNSLKPEDTAVYYCAARYWRGPRYDYWGQGTQVTVSS | high polyreactivity |
| QVQLVESGGGLVQAGGSLRLSCAASGRTFTYYAMGWYRQAPGKERKLVAAISQRGGGTYYADSVKGRFTISRDNAKNTVYLQMNSLKPEDTAVYYCAARWRLSGYDYWGQGTQVTVSS | high polyreactivity |
| QVQLVESGGGLVQAGGSLRLSCAASGRTFVDNAMGWYRHAPGKERELVAAISSGGTTNYADSVKGRFTISRDNAKNTVYLQMNSLKPEDTAVYYCNTVATYLRSGYGYWGQGTQVTVSS | low polyreactivity |
| QVQLVESGGGLVQAGGSLRLSCAASGRTFVDYVMGWYRQAPGKERELVAAISRSGSTYYADSVKGRFTISRDNAKNTVYLQMNSLKPEDTAVYYCAASSVALPWYVSWYVYGYEYWGQGTQVTVSS | low polyreactivity |
| QVQLVESGGGLVQAGGSLRLSCAASGRTFVFNAMGWYRQAPGKERELVAGISGSGGSTYYADSVKGRFTISRDNAKNTVYLQMNSLKPEDTAVYYCATKFPRKELDQDSVSGLGYWGQGTQVTVSS | low polyreactivity |
| QVQLVESGGGLVQAGGSLRLSCAASGRTFVGNVMGWYRQAPGKERELVAAINRDASTNYADSVKGRFTISRDNAKNTVYLQMNSLKPEDTAVYYCATRRGFFDIFYGGYDYWGQGTQVTVSS | low polyreactivity |
| QVQLVESGGGLVQAGGSLRLSCAASGRTFVGYAMGWYRQAPGKERELVAAISRRGGSTYYADSVKGRFTISRDYAKKTVYLQMNSLKPEDTAVYYCARDYGGVGAPGSAGAYDYWGQGTQVTVSS | high polyreactivity |
| QVQLVESGGGLVQAGGSLRLSCAASGRTFVGYAMGWYRQAPGKERELVAAISWSGGRTYYADSVKGRFTISRDNAKNTVYLQMNSLKPEDTAVYYCAALLYRTPYYPYYGYDYWGQGTQVTVSS | high polyreactivity |
| QVQLVESGGGLVQAGGSLRLSCAASGRTFVGYAMGWYRQSPGKERELVAAISTSGGRTYYADSVKGRFTISRDNAKYTVYLQMNSLKPEDTAVYYCAAGFRASIGYVTEYYWGQGTQVTVTS | high polyreactivity |
| QVQLVESGGGLVQAGGSLRLSCAASGRTFVGYPIGWYRQAPGKESELVATITNDAITNADSVKGRFTISRDNAKNTVYLQMNSLKPEDTAVYYCNTRYSYGTAYEQYRYKALYDYWGQGTQVTVSS | low polyreactivity |
| QVQLVESGGGLVQAGGSLRLSCAASGRTFVINAMGWYRQAPGKERELVAAISRGGSTNYADSVKGRFTISRDNAKNTVYLQMNSLKPEDTAVYYCNADYPNWWSPFDYWGQGTQVTVSS | low polyreactivity |
| QVQLVESGGGLVQAGGSLRLSCAASGRTFVKNAMGWYRQAPGKERELVAAIDRGSRTNYADSVKGRFTISRDNAKNTVYLQMNSLKPEDTAVYYCATRYRVRDDQTGTWSIFGYWGQGTQVTVSS | high polyreactivity |
| QVQLVESGGGLVQAGGSLRLSCAASGRTFVKNAMGWYRQAPGKERELVAAISRTGSTNYADSVKGRFTISRDNAKNTVYLQMNSLKPEDTAVYYCAAVRYDYWGQGTQVTVSS | low polyreactivity |

| Sequence | polyreactivity (PSR sort gate) |
| --- | --- |
| QVQLVESGGGLVQAGGSLRLSCAASGRTFVLYAMGWYRQAPGKERELVAAITSGGSTNYADSVKGRFTISRDNAKNTVYLQMNSLKPEDTAVYDCAAVPVRYRYSYGYYYWGQGTQVTVSS | high polyreactivity |
| QVQLVESGGGLVQAGGSLRLSCAASGRTFVLYAMGWYRQAPVKERELVASITWSGVSTTYADSVKGRFTISRDNAKNTVYLQMNSLKPEDTAVYYCAKDGLFEQGYPYQLGYWGQGTQVTVSS | low polyreactivity |
| QVQLVESGGGLVQAGGSLRLSCAASGRTFVLYTMGRYRQAPGKERELVAVGSTYYADSVKGRFTISRDNAKNTVYLQMNSLKPEDTAVYYCNKPGNYVWRRSWDFDYWGQGTQVTVSS | high polyreactivity |
| QVQLVESGGGLVQAGGSLRLSCAASGRTFVLYTMGWYRQAPGKERELVAVGSTYYADSVKGRFTISRDNAKNTVYLQMNSLIAEDTAVYYCAADIHWYGYYYWGLGTQVTVSS | high polyreactivity |
| QVQLVESGGGLVQAGGSLRLSCAASGRTFVLYTMGWYRQAPGKERELVAVGSTYYADSVKGRFTISRDNAKNTVYLQMNSLKPEDTAVYYCNKPGNYVWRRSWDFDYWGQGTQVTVSS | high polyreactivity |
| QVQLVESGGGLVQAGGSLRLSCAASGRTFVNNAMGWYRQAPGKERELVAAISRSGGRTYYADSVKGRFTISRDNAKNTVYLQMNSLKPEDTAVYYCAADSSYSRKYDYWGQGTQVTVSS | low polyreactivity |
| QVQLVESGGGLVQAGGSLRLSCAASGRTFVNNAMGWYRQAPGKERELVAAITRSGGRTYYADSVKGRFTISRDNAKNTVYLQMNSLKPEDTAVYYCATANVRLRHDDYWGQGTQVTVSS | high polyreactivity |
| QVQLVESGGGLVQAGGSLRLSCAASGRTFVNYTMGWYRQAPGKERELVAAVSWTGGRTYYADSVKGRFTISRDNAKNTVYLQMNSLKPEDTAVYYCATQPEKSGRPAIDPELYDYWGQGTQVTVSS | low polyreactivity |
| QVQLVESGGGLVQAGGSLRLSCAASGRTFVPNAMGWYRQAPGKERELVAAISDSGGSTYYADSVKGRFTISRDNAKNTVYLQMNSLKPEDTAVYYCATDGTTYVGWEHGFNYWGQGTQVTVSS | low polyreactivity |
| QVQLVESGGGLVQAGGSLRLSCAASGRTFVPYAMGRYRQAPGKERELVAAISARGSSTYYADSVKGRFTISRDNAKNTVYLQMNSLKPEDTAVYYCNAVGARVASATGMEYWGQGTQVTVSS | high polyreactivity |
| QVQLVESGGGLVQAGGSLRLSCAASGRTFVPYAMGWYRQAPGKERELVAAINSGGSTYYADSVKGRFSISRDNAKNTVYLQMNSLKPEDTAVYYCAAEYWNSRFSYAYGYWGQGTQVTVSS | high polyreactivity |
| QVQLVESGGGLVQAGGSLRLSCAASGRTFVPYAMGWYRQAPGKERELVAAITSSGGSTYYADSVKGRFTISRDNAKNTVYLQMNSLKPEDTAVYYCNALDGTLRTIYDYWGQGTQVTVSS | high polyreactivity |
| QVQLVESGGGLVQAGGSLRLSCAASGRTFVRNAMGWYRQAPGKERELVAAISSSGGSTYYADSVKGRFTISRDNAKNTVYLQMNSLKPEDTAVYYCAARSAFYYTYRSHYGWGMDYWGQGTQVTVSS | high polyreactivity |
| QVQLVESGGGLVQAGGSLRLSCAASGRTFVRNAMGWYRQAPGKERELVAGIRRGGTTNYADSVKGRFTISRDNAKNTVYLQMNSLKPEDTAVYYCNALYRYGWLYAPKYNSWGQGTQVTVSS | high polyreactivity |
| QVQLVESGGGLVQAGGSLRLSCAASGRTFVRYAMGRYRQAPGKERELVAAISGDGASTYYADSVKGRFTISRDNAKNTVYLQMNSLKPEDPAVYYCNARSIRRYYYPDYDYWGQGTQVTVSS | high polyreactivity |
| QVQLVESGGGLVQAGGSLRLSCAASGRTFVRYAMGWYRQAPGKERELVAAISRTGGTTYYADSVKGRFTISRDNAKNTVYLQMNSLKPEDTAVYYCNADPFYKYGYWGQGTKVTVSS | high polyreactivity |
| QVQLVESGGGLVQAGGSLRLSCAASGRTFVRYAMGWYRQAPGKERELVASIRTGGSTNYADSVKGRFTISRDNAKNTVYLQMNSLKPEDTAVYYCAAPRTYRPWGRMDYWGQGTQVTVSS | high polyreactivity |
| QVQLVESGGGLVQAGGSLRLSCAASGRTFVSHAMGWYRQAPGKERELVAAITNGGRTYYADSVKGRFTISRDNAKNTVYLQMNSLKPEDTAVYYCAAYVPTFKDRSRWYGRKYDYWGQGTQVTVSS | low polyreactivity |
| QVQLVESGGGLVQAGGSLRLSCAASGRTFVSNAMGWYRQAPGKERELVAAISFSGDSTYYADSVKGRFTISRDNAKKTVYLQMNSLKPEDTAVYYCRFYSYWSWLGREYDYWGQGTQVTVSS | low polyreactivity |
| QVQLVESGGGLVQAGGSLRLSCAASGRTFVSNAMGWYRQAPGKERELVAAISWSGSRTYYADSVKGRFTISRDNAKNTVYLQMNSLKPEDTAVYYCAAAKPKKSRGSAYEYWGQGTQVTVSS | high polyreactivity |
| QVQLVESGGGLVQAGGSLRLSCAASGRTFVSNDMGWYRQAPGKERELVATISSGASTYYADSVKGRFTISRDNAKITVYLQMNSLKPEDTAVYYCAAEVLVFGGGYDYWGQGTQVTVSS | low polyreactivity |
